This sample holds only a part of the variants without activity.

In the supplement of paper PMC9233669 one finds self-aminoacylation data, which are given here for 51 sequences.

The test system of one data set is biotinyl-Phe-oxazolone. Briefly: self-aminoacylation, catalytic enhancement (BFO) (fold over background); higher = more active; k-Seq, kA / k0A0; sequences stand for … in GGGAAUGGAUCCACAUCUACGAAUUC…UUCACUGCAGACUUGACGAAGCUG
Summed up: (§1)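 Mutagenized RNA pools with a 21-nt variable region (0.43 μM) were reacted with each biotinyl-aminoacyl-oxazolone at 2–1250 μM for 90 minutes at room temperature, in 50 μL HEPES/NaCl/KCl/MgCl2/CaCl2 buffer containing 5% acetonitrile at pH 6.9–7.0. RNA captured on streptavidin was quantified by triplicate qPCR and by Illumina sequencing. The fraction reacted for each sequence was fit to a pseudo-first-order model with bootstrapping, and catalytic enhancement is the median kA divided by the uncatalyzed rate, taken as the low-activity peak of a bimodal Gaussian fit.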

A further data set relates to biotinyl-Trp-oxazolone. Kind of data set: self-aminoacylation, catalytic enhancement (BWO) (fold over background); higher = more active; k-Seq, kA / k0A0; sequences stand for … in GGGAAUGGAUCCACAUCUACGAAUUC…UUCACUGCAGACUUGACGAAGCUG
In outline: as §1

A further data set has as its system biotinyl-Leu-oxazolone. Kind of data set: self-aminoacylation, catalytic enhancement (BLO) (fold over background); higher = more active; k-Seq, kA / k0A0; sequences stand for … in GGGAAUGGAUCCACAUCUACGAAUUC…UUCACUGCAGACUUGACGAAGCUG
Summed up: as §1

“AAGCUGGCUAAUAGUCGCAAG [Fam3.1 aminoacylation ribozyme variant]”: the values for the self-aminoacylation in the data set on biotinyl-Phe-oxazolone, in the data set with biotinyl-Trp-oxazolone and in the data set on biotinyl-Leu-oxazolone were 3.61, 2.08 and 2.68, respectively.

On to “AAGCUUGCUAAUAGUCGCAUG [Fam3.1 aminoacylation ribozyme variant]”, for which the self-aminoacylation in the data set on biotinyl-Phe-oxazolone was 3.98; in the data set with biotinyl-Leu-oxazolone it was 2.07.

With “AAGUUAGCUAAUAGUCGCGAG [Fam3.1 aminoacylation ribozyme variant]”, the self-aminoacylation in the data set on biotinyl-Phe-oxazolone turned out to be 2.29; in the data set on biotinyl-Trp-oxazolone, 2.24; in the data set on biotinyl-Leu-oxazolone, 2.09.

On to “ACACACUUCAAGCCAUCGGUC [Fam1B.1 aminoacylation ribozyme variant]”, for which the results for the self-aminoacylation in the data set with biotinyl-Phe-oxazolone and with biotinyl-Leu-oxazolone were 2.41 and 2.11, respectively.

With “ACACGCUUCAAGCAAUCGGUC [Fam1B.1 aminoacylation ribozyme variant]”, the self-aminoacylation with biotinyl-Phe-oxazolone worked out at 63.7; with biotinyl-Trp-oxazolone it was 38.8; in the data set with biotinyl-Leu-oxazolone, 2.68.

“AUACACCUAGGUCGUCGGGUG [Fam2.2 aminoacylation ribozyme variant]”: the figures for the self-aminoacylation in the data set with biotinyl-Phe-oxazolone and in the data set with biotinyl-Leu-oxazolone were 6.55 and 2.55, respectively.

As to “AUUCACAUAGGUCAUCGAGUG [Fam2.2 aminoacylation ribozyme variant]”, the figures for the self-aminoacylation in the data set with biotinyl-Phe-oxazolone, in the data set with biotinyl-Trp-oxazolone and in the data set on biotinyl-Leu-oxazolone were 3.08, 2.2 and 2.69, respectively.

On to “AUUCACCGAGGUCAUCAGGUG [Fam2.2 aminoacylation ribozyme variant]”, for which the self-aminoacylation is 2.42 with biotinyl-Phe-oxazolone and 2.03 in the data set with biotinyl-Leu-oxazolone.

On to “AUUCACCUACGUCGUCGGGUG [Fam2.2 aminoacylation ribozyme variant]”, for which the self-aminoacylation in the data set with biotinyl-Phe-oxazolone turned out to be 11.5; in the data set with biotinyl-Leu-oxazolone, 2.38.

As for “AUUCACCUAGCUCCUCGGGUG [Fam2.2 aminoacylation ribozyme variant]”, the self-aminoacylation in the data set with biotinyl-Phe-oxazolone was 5.19; in the data set with biotinyl-Leu-oxazolone, 2.24.

In the case of “AUUCACCUAGGUCAUCUGGCG [Fam2.2 aminoacylation ribozyme variant]”, in the data set with biotinyl-Leu-oxazolone, the self-aminoacylation worked out at 2.88.

On to “AUUCACCUGGGUCAUAGGGUG [Fam2.2 aminoacylation ribozyme variant]”, for which the results for the self-aminoacylation with biotinyl-Phe-oxazolone and in the data set on biotinyl-Leu-oxazolone were 6.22 and 2.23, respectively.

Regarding “CCACACUUGAAGCAUUCGGUC [Fam1B.1 aminoacylation ribozyme variant]”, the self-aminoacylation in the data set with biotinyl-Phe-oxazolone was found to be 3.66; in the data set with biotinyl-Trp-oxazolone it was 2.09.

For “CCACAGUUCAAGCAAUCGGUC [Fam1B.1 aminoacylation ribozyme variant]”, the self-aminoacylation in the data set on biotinyl-Phe-oxazolone was found to be 5.12; in the data set on biotinyl-Trp-oxazolone, 3.69.

Take “CCACCUCAAACAAUCGGUCUG [Fam1A.1 aminoacylation ribozyme variant]”: the self-aminoacylation in the data set on biotinyl-Phe-oxazolone and in the data set on biotinyl-Trp-oxazolone was 4.25 throughout.

For “CCACUCUUCAACCAAUCGGUC [Fam1B.1 aminoacylation ribozyme variant]”, the values for the self-aminoacylation in the data set with biotinyl-Phe-oxazolone and in the data set on biotinyl-Trp-oxazolone were 45.7 and 27, respectively.

As for “CCACUCUUCAAGCAAUCAGUC [Fam1B.1 aminoacylation ribozyme variant]”, the figures for the self-aminoacylation in the data set with biotinyl-Phe-oxazolone and with biotinyl-Trp-oxazolone were 8.2 and 2.76, respectively.

For the sequence “CCCUACUUCAAGCAAUCGGUC [Fam1B.1 aminoacylation ribozyme variant]”, the self-aminoacylation in the data set with biotinyl-Phe-oxazolone came out at 73.5; in the data set with biotinyl-Trp-oxazolone, 33.8.

In the case of “CGACACUUCACGCAAUCGGUC [Fam1B.1 aminoacylation ribozyme variant]”, the self-aminoacylation in the data set on biotinyl-Phe-oxazolone was 4.13; with biotinyl-Leu-oxazolone, 2.15.

As for “CGACCUCAAACAAUCGGUCUG [Fam1A.1 aminoacylation ribozyme variant]”, the self-aminoacylation with biotinyl-Phe-oxazolone was determined as 3.54; with biotinyl-Trp-oxazolone it was 4.64.

Consider “CGACUUCAAAUAAUCGGUCUG [Fam1A.1 aminoacylation ribozyme variant]”, for which the figures for the self-aminoacylation with biotinyl-Phe-oxazolone and in the data set with biotinyl-Trp-oxazolone were 16.2 and 14.6, respectively.

In the case of “CGAGACUUCAAGCAAUCGGUC [Fam1B.1 aminoacylation ribozyme variant]”, the self-aminoacylation in the data set on biotinyl-Phe-oxazolone turned out to be 5.77; with biotinyl-Trp-oxazolone, 4.16.

On to “CUACACUUCAAGAAAUCGGUC [Fam1B.1 aminoacylation ribozyme variant]”, for which the self-aminoacylation with biotinyl-Phe-oxazolone was 8.72; in the data set on biotinyl-Trp-oxazolone it was 5.31.

For the sequence “CUACCUCCAACAAUCGGUCUG [Fam1A.1 aminoacylation ribozyme variant]”, the self-aminoacylation in the data set with biotinyl-Phe-oxazolone was 4.71; in the data set on biotinyl-Trp-oxazolone, 3.94.

Take “CUACGUCAAACAAUCGGUGUG [Fam1A.1 aminoacylation ribozyme variant]”: in the data set with biotinyl-Leu-oxazolone, the self-aminoacylation was 2.02.

As for “CUACUUCAAACAAUCGGGCUG [Fam1A.1 aminoacylation ribozyme variant]”, the values for the self-aminoacylation in the data set with biotinyl-Phe-oxazolone and in the data set with biotinyl-Trp-oxazolone were 13.2 and 9.43, respectively.

On to “CUACUUCAAACAAUCGGUCGG [Fam1A.1 aminoacylation ribozyme variant]”, for which the self-aminoacylation with biotinyl-Phe-oxazolone stood at 27.4; in the data set with biotinyl-Trp-oxazolone it was 17.3.

Turning to “CUACUUCAAACAAUCGGUCUA [Fam1A.1 aminoacylation ribozyme variant]”, the self-aminoacylation in the data set with biotinyl-Phe-oxazolone turned out to be 24.5; with biotinyl-Trp-oxazolone, 10.

Regarding “CUACUUCAAAUAAUCGGUCUC [Fam1A.1 aminoacylation ribozyme variant]”, the self-aminoacylation amounted to 15.6 in the data set on biotinyl-Phe-oxazolone and 7.99 with biotinyl-Trp-oxazolone.

Consider “CUACUUCAACCAAUCGGUCAG [Fam1A.1 aminoacylation ribozyme variant]”, for which the self-aminoacylation in the data set with biotinyl-Phe-oxazolone was determined as 6.18; with biotinyl-Trp-oxazolone, 3.33.

Take “CUACUUCAACCAAUCGGUCUA [Fam1A.1 aminoacylation ribozyme variant]”: the self-aminoacylation in the data set with biotinyl-Phe-oxazolone came to 11.9; in the data set with biotinyl-Trp-oxazolone, 7.

With “CUACUUCAAGCAAUCGGUCCG [Fam1A.1 aminoacylation ribozyme variant]”, the self-aminoacylation in the data set with biotinyl-Phe-oxazolone amounted to 3.44; with biotinyl-Trp-oxazolone, 3.02.

Take “CUACUUCAAGCAAUCGGUCUA [Fam1A.1 aminoacylation ribozyme variant]”: the self-aminoacylation came to 7.64 in the data set on biotinyl-Phe-oxazolone and 4.06 in the data set with biotinyl-Trp-oxazolone.

With “CUACUUCAAGCAAUCGGUCUC [Fam1A.1 aminoacylation ribozyme variant]”, the self-aminoacylation in the data set on biotinyl-Phe-oxazolone is 11.4; in the data set with biotinyl-Trp-oxazolone, 6.61.

Take “CUACUUCAAUCAAUCGGACUG [Fam1A.1 aminoacylation ribozyme variant]”: the self-aminoacylation in the data set on biotinyl-Phe-oxazolone worked out at 8.24; in the data set with biotinyl-Trp-oxazolone, 4.18.

Take “CUACUUCAAUCAAUCGGUCAG [Fam1A.1 aminoacylation ribozyme variant]”: the self-aminoacylation was 7.4 in the data set with biotinyl-Phe-oxazolone and 3.51 in the data set on biotinyl-Trp-oxazolone.

Consider “CUACUUCAAUCAAUCGGUCCG [Fam1A.1 aminoacylation ribozyme variant]”, for which the self-aminoacylation in the data set on biotinyl-Phe-oxazolone came out at 6.48; in the data set on biotinyl-Trp-oxazolone it was 4.75.

As to “CUACUUCAAUCAAUCGGUCUC [Fam1A.1 aminoacylation ribozyme variant]”, the self-aminoacylation in the data set on biotinyl-Phe-oxazolone is 25.9; with biotinyl-Trp-oxazolone, 14.9.

With “CUAGUUCAAACAAUCAGUCUG [Fam1A.1 aminoacylation ribozyme variant]”, the self-aminoacylation in the data set on biotinyl-Phe-oxazolone turned out to be 5.02; with biotinyl-Trp-oxazolone it was 2.15.

“CUAGUUCAAACAAUCGGUCGG [Fam1A.1 aminoacylation ribozyme variant]”: the self-aminoacylation is 4.12 with biotinyl-Phe-oxazolone and 2.94 in the data set on biotinyl-Trp-oxazolone.

With “CUAUUUCAAUCAAUCGGUCUG [Fam1A.1 aminoacylation ribozyme variant]”, the figures for the self-aminoacylation with biotinyl-Phe-oxazolone and in the data set with biotinyl-Trp-oxazolone were 6.36 and 3.72, respectively.

On to “CUCAUUCAAACAAUCGGUCUG [Fam1A.1 aminoacylation ribozyme variant]”, for which the self-aminoacylation in the data set on biotinyl-Phe-oxazolone came to 11.7; in the data set on biotinyl-Trp-oxazolone, 7.42.

Turning to “CUCCUUCAAACAAUCGGGCUG [Fam1A.1 aminoacylation ribozyme variant]”, the self-aminoacylation came to 15.1 in the data set on biotinyl-Phe-oxazolone and 14.4 in the data set with biotinyl-Trp-oxazolone.

For “CUCCUUCAAACAAUCGGUCUU [Fam1A.1 aminoacylation ribozyme variant]”, the self-aminoacylation in the data set on biotinyl-Phe-oxazolone was 25.4; in the data set with biotinyl-Trp-oxazolone, 16.3.

With “CUGCUCCAAACAAUCGGUCUG [Fam1A.1 aminoacylation ribozyme variant]”, the results for the self-aminoacylation in the data set with biotinyl-Phe-oxazolone and with biotinyl-Trp-oxazolone were 27 and 20.3, respectively.

In the case of “CUGCUUCAAUCAAUCGGUCUG [Fam1A.1 aminoacylation ribozyme variant]”, the self-aminoacylation with biotinyl-Phe-oxazolone is 44.2; in the data set with biotinyl-Trp-oxazolone, 26.8.

Consider “GUACUUCAAACAAUCAGUCUG [Fam1A.1 aminoacylation ribozyme variant]”, for which the self-aminoacylation came to 19.3 in the data set with biotinyl-Phe-oxazolone and 10.3 with biotinyl-Trp-oxazolone.

Consider “UAACACUUCAAGCAAUCGGUC [Fam1B.1 aminoacylation ribozyme variant]”, for which the self-aminoacylation in the data set on biotinyl-Phe-oxazolone amounted to 25.6; with biotinyl-Trp-oxazolone, 13.3.

Regarding “UAGUUUGCUAACAGUCGCAAG [Fam3.1 aminoacylation ribozyme variant]”, the self-aminoacylation stood at 5.84 with biotinyl-Phe-oxazolone and 3.08 in the data set with biotinyl-Trp-oxazolone.

As to “UCACACUUCAAGCAAUCGGCC [Fam1B.1 aminoacylation ribozyme variant]”, the figures for the self-aminoacylation in the data set with biotinyl-Phe-oxazolone and in the data set with biotinyl-Trp-oxazolone were 4.64 and 4, respectively.

For “UUACUUCAACCAAUCGGUCUG [Fam1A.1 aminoacylation ribozyme variant]”, the figures for the self-aminoacylation in the data set with biotinyl-Phe-oxazolone and with biotinyl-Trp-oxazolone were 16.2 and 11.2, respectively.
